Columns and labels:
[1] = molecular target: RSV F sc9 DS-Cav1 (human RSV subtype A (strain A2)); assay: D25 binding to heat-treated protein relative to the untreated protein (physical stability, FIG. 1E)
[2] = molecular target: RSV F sc9 DS-Cav1 (human RSV subtype A (strain A2)); assay: BLI (Octet), F on Ni-NTA tips, Fab in solution
[3] = molecular target: sc9-10 DS-Cav1 A149C, Y458C S46G-E92D-S215P-K465Q (A2); assay: BLI (Octet), F on Ni-NTA tips, Fab in solution
[4] = molecular target: sc9-10 DS-Cav1 N183GC, N428C S46G-N67I-E92D-S215P-K465Q (A2); assay: BLI (Octet), F on Ni-NTA tips, Fab in solution
[5] = molecular target: sc9-10 DS-Cav1 A149C, Y458C S46G-S215P-K465Q (A2); assay: BLI (Octet), F on Ni-NTA tips, Fab in solution
[6] = molecular target: sc9-10 DS-Cav1 N183GC,N428C; assay: BLI (Octet), F on Ni-NTA tips, Fab in solution
[7] = molecular target: sc10 DS-Cav1; assay: BLI (Octet), F on Ni-NTA tips, Fab in solution
[8] = molecular target: sc9-10 DS-Cav1 A149C, Y458C S46G-N67I-E92D-S215P-K465Q (A2); assay: BLI (Octet), F on Ni-NTA tips, Fab in solution
[9] = molecular target: sc9-10 A DS-Cav1 A149C, Y458C; assay: BLI (Octet), F on Ni-NTA tips, Fab in solution
[10] = molecular target: RSV F DS-Cav1 (human RSV subtype A (strain A2)) (UniProt P03420); assay: BLI (Octet), F on Ni-NTA tips, Fab in solution
[11] = molecular target: RSV F sc9 DS-Cav1 (human RSV subtype A (strain A2)); assay: BLI (Octet), D25 Fab binding after/before stress
[12] = molecular target: sc9-10 DS-Cav1 A149C, Y458C S46G-E92D-S215P-K465Q (A2); assay: BLI (Octet), D25 Fab binding after/before stress
[13] = molecular target: sc9-10 DS-Cav1 N183GC, N428C S46G-N67I-E92D-S215P-K465Q (A2); assay: BLI (Octet), D25 Fab binding after/before stress
[14] = molecular target: sc9-10 DS-Cav1 A149C, Y458C S46G-S215P-K465Q (A2); assay: BLI (Octet), D25 Fab binding after/before stress
[15] = molecular target: sc9-10 DS-Cav1 N183GC,N428C; assay: BLI (Octet), D25 Fab binding after/before stress
[16] = molecular target: sc10 DS-Cav1; assay: BLI (Octet), D25 Fab binding after/before stress
[17] = molecular target: sc9-10 DS-Cav1 A149C, Y458C S46G-N67I-E92D-S215P-K465Q (A2); assay: BLI (Octet), D25 Fab binding after/before stress
[18] = molecular target: sc9-10 A DS-Cav1 A149C, Y458C; assay: BLI (Octet), D25 Fab binding after/before stress
[19] = molecular target: RSV F DS-Cav1 (human RSV subtype A (strain A2)) (UniProt P03420); assay: BLI (Octet), D25 Fab binding after/before stress
[20] = molecular target: bRSV F ATue51908 sc9-10 DS-Cav1 A149C Y458C (bovine RSV, strain ATue51908 (NP_048055.1)); assay: Fab binding to purified bRSV F trimer (Octet BLI as in Example 1)
[21] = molecular target: bRSV F ATue51908 DS-Cav1 (bovine RSV, strain ATue51908) (UniProt P22167); assay: as above
[22] = molecular target: bRSV F 391-2 sc9 DS-Cav1 Q98C Q361C (bovine RSV, strain 391-2) (UniProt P22167); assay: as above
[23] = molecular target: bRSV F RB94 DS-Cav1 (bovine RSV, strain RB94) (UniProt P23728); assay: as above
[24] = molecular target: bRSV F 391-2 DS-Cav1 (bovine RSV, strain 391-2) (UniProt P22167); assay: as above
[25] = molecular target: bRSV F strain 391-2 sc9-10, DS-Cav1, Q98C-Q361C (bovine RSV, strain 391-2); assay: as above
[26] = molecular target: sc9-10 DS-Cav1 Q98C, Q361C S46G-E92D-L95M-S215P-I217P-I221M-R429K-K465Q (Long (VR26)); assay: BLI (Octet), F on Ni-NTA tips, Fab in solution
[27] = molecular target: sc9 DS-Cav1-105Q; assay: BLI (Octet), F on Ni-NTA tips, Fab in solution
[28] = molecular target: RSV F sc9-10 DS-Cav1 (human RSV subtype A (strain A2)); assay: BLI (Octet), F on Ni-NTA tips, Fab in solution
[29] = molecular target: sc9-19 DS-Cav1; assay: BLI (Octet), F on Ni-NTA tips, Fab in solution
[30] = molecular target: RSV F sc9-9 DS-Cav1 (human RSV subtype A (strain A2)) (UniProt P03420); assay: BLI (Octet), F on Ni-NTA tips, Fab in solution
[31] = molecular target: sc9-10 DS-Cav1 Q98C, Q361C L95M-I221M-R429K (B18537); assay: BLI (Octet), F on Ni-NTA tips, Fab in solution
[32] = molecular target: sc8 DS-Cav1; assay: BLI (Octet), F on Ni-NTA tips, Fab in solution
[33] = molecular target: sc9-24 DS-Cav1; assay: BLI (Octet), F on Ni-NTA tips, Fab in solution
[34] = molecular target: sc11 DS-Cav1; assay: BLI (Octet), F on Ni-NTA tips, Fab in solution
[35] = molecular target: bRSV F 391-2 post-F (bovine RSV, strain 391-2) (UniProt P22167); assay: Motavizumab binding to stressed post-F protein as a fraction of the untreated protein (physical stability)
[36] = molecular target: bRSV F 391-2 post-F (bovine RSV, strain 391-2) (UniProt P22167); assay: Fab binding to purified bRSV F trimer (Octet BLI as in Example 1)
[37] = molecular target: RSV F sc9-42 DS-Cav1 (human RSV subtype A (strain A2)) (UniProt P03420); assay: BLI (Octet), F on Ni-NTA tips, Fab in solution
[38] = molecular target: sc4 DS-Cav1; assay: BLI (Octet), F on Ni-NTA tips, Fab in solution
[39] = molecular target: RSV F sc9-41 DS-Cav1 (human RSV subtype A (strain A2)) (UniProt P03420); assay: BLI (Octet), F on Ni-NTA tips, Fab in solution

## D25 Fab
[1]
  percent still active (site Ø retained) after 1 h at 70 °C: 39%
[2]
  Kd: 0.8 nM
[3]
  Kd: 0.2 nM
[4]
  Kd: 0.2 nM
[5]
  Kd: 0.1 nM
[6]
  Kd: 0.2 nM
[7]
  Kd: 0.3 nM
[8]
  Kd: 0.6 nM
[9]
  Kd: 0.2 nM
[10]
  Kd: 0.15 nM
[11]
  fractional D25 reactivity, 50 °C: 0.4
  fractional D25 reactivity, 70 °C: 0.4
  fractional D25 reactivity, freeze-thaw: 0.2
  fractional D25 reactivity, osmolality 10 mM: 0.1
  fractional D25 reactivity, osmolality 3000 mM: 0.1
  fractional D25 reactivity, pH 3.5: 0.2
  fractional D25 reactivity, pH 10.0: 0.1
[12]
  fractional D25 reactivity, 50 °C: 0.9
  fractional D25 reactivity, 70 °C: 0.8
  fractional D25 reactivity, freeze-thaw: 0.2
  fractional D25 reactivity, osmolality 10 mM: 0.5
  fractional D25 reactivity, osmolality 3000 mM: 0.6
  fractional D25 reactivity, pH 3.5: 3.8
  fractional D25 reactivity, pH 10.0: 0.6
[13]
  fractional D25 reactivity, 50 °C: 1
  fractional D25 reactivity, 70 °C: 0.9
  fractional D25 reactivity, freeze-thaw: 0.2
  fractional D25 reactivity, osmolality 10 mM: 0.8
  fractional D25 reactivity, osmolality 3000 mM: 0.7
  fractional D25 reactivity, pH 10.0: 0.5
[14]
  fractional D25 reactivity, 50 °C: 1
  fractional D25 reactivity, 70 °C: 0.9
  fractional D25 reactivity, freeze-thaw: 0.1
  fractional D25 reactivity, osmolality 10 mM: 0.7
  fractional D25 reactivity, osmolality 3000 mM: 0.8
  fractional D25 reactivity, pH 10.0: 0.4
[15]
  fractional D25 reactivity, 10 cycles freeze/thaw with 5% glycerol: 0.6
  fractional D25 reactivity, 10 cycles freeze/thaw with 10% glycerol: 0.7
  fractional D25 reactivity, 50 °C: 1
  fractional D25 reactivity, 70 °C: 0.5
  fractional D25 reactivity, freeze-thaw: 0.3
  fractional D25 reactivity, osmolality 10 mM: 0.9
  fractional D25 reactivity, osmolality 3000 mM: 0.4
  fractional D25 reactivity, pH 3.5: 2.6
  fractional D25 reactivity, pH 10.0: 0.7
[16]
  fractional D25 reactivity, 50 °C: 0.3
  fractional D25 reactivity, 70 °C: 0.3
  fractional D25 reactivity, freeze-thaw: 0.1
  fractional D25 reactivity, osmolality 10 mM: 0.1
  fractional D25 reactivity, osmolality 3000 mM: 0.1
  fractional D25 reactivity, pH 3.5: 0.2
  fractional D25 reactivity, pH 10.0: 0.2
[17]
  fractional D25 reactivity, 50 °C: 1
  fractional D25 reactivity, 70 °C: 0.9
  fractional D25 reactivity, freeze-thaw: 0.1
  fractional D25 reactivity, osmolality 10 mM: 0.8
  fractional D25 reactivity, osmolality 3000 mM: 0.7
  fractional D25 reactivity, pH 10.0: 0.7
[18]
  fractional D25 reactivity, 10 cycles freeze/thaw with 5% glycerol: 0.6
  fractional D25 reactivity, 10 cycles freeze/thaw with 10% glycerol: 0.9
  fractional D25 reactivity, 50 °C: 1
  fractional D25 reactivity, 70 °C: 0.8
  fractional D25 reactivity, freeze-thaw: 0.3
  fractional D25 reactivity, osmolality 10 mM: 0.7
  fractional D25 reactivity, osmolality 3000 mM: 0.6
  fractional D25 reactivity, pH 3.5: 2.3
  fractional D25 reactivity, pH 10.0: 0.7
[19]
  fractional D25 reactivity, 50 °C: 0.9
  fractional D25 reactivity, 70 °C: 0
  fractional D25 reactivity, freeze-thaw: 0.1
  fractional D25 reactivity, osmolality 10 mM: 0.9
  fractional D25 reactivity, osmolality 3000 mM: 1
  fractional D25 reactivity, pH 3.5: 0.8
  fractional D25 reactivity, pH 10.0: 0.5

## AM14 Fab
[20]
  Kd: 12.8 nM
[21]
  Kd: 4.8 nM
[22]
  Kd: 8.6 nM
[23]
  Kd: 4.9 nM
[24]
  Kd: 1.8 nM
[25]
  Kd: 12.8 nM
[2]
  Kd: 33.1 nM
[3]
  Kd: 15.9 nM
[26]
  Kd: 33.9 nM
[27]
  Kd: 46.2 nM
[28]
  Kd: 6.6 nM
[4]
  Kd: 2210 nM
[29]
  Kd: 25.6 nM
[30]
  Kd: 3.3 nM
[31]
  Kd: 18.5 nM
[5]
  Kd: 35.1 nM
[6]
  Kd: 787 nM
[32]
  Kd: 1330 nM
[8]
  Kd: 1 nM
[9]
  Kd: 6.3 nM
[33]
  Kd: 25.1 nM
[10]
  Kd: 3.3 nM

## MPE8 Fab
[20]
  Kd: 0.5 nM
[21]
  Kd: 0.2 nM
[22]
  Kd: 0.4 nM
[23]
  Kd: 0.2 nM
[24]
  Kd: 0.2 nM
[25]
  Kd: 0.8 nM
[2]
  Kd: 0.8 nM
[3]
  Kd: 0.2 nM
[26]
  Kd: 0.2 nM
[34]
  Kd: 1.6 nM
[27]
  Kd: 0.8 nM
[28]
  Kd: 0.8 nM
[4]
  Kd: 0.2 nM
[29]
  Kd: 1 nM
[30]
  Kd: < 0.01 nM
[31]
  Kd: 0.2 nM
[5]
  Kd: 0.4 nM
[6]
  Kd: 0.1 nM
[7]
  Kd: 0.8 nM
[32]
  Kd: 0.5 nM
[8]
  Kd: 0.2 nM
[9]
  Kd: 0.1 nM
[33]
  Kd: 0.8 nM
[10]
  Kd: 0.5 nM

## Motavizumab Fab
[35]
  fractional antibody reactivity after 10 cycles of freeze-thaw: 1
  fractional antibody reactivity after 50 °C: 1
  fractional antibody reactivity after 70 °C: 1
  fractional antibody reactivity after osmolarity 10 mM: 0.9
  fractional antibody reactivity after osmolarity 3000 mM: 0.6
  fractional antibody reactivity after pH 3.5: 0.8
  fractional antibody reactivity after pH 10.0: 1.1
[36]
  Kd: 0.6 nM
[24]
  Kd: 0.8 nM
[2]
  Kd: 13.7 nM
[3]
  Kd: 0.6 nM
[26]
  Kd: 11.1 nM
[37]
  Kd: 5.9 nM
[38]
  Kd: 7.6 nM
[34]
  Kd: 29.3 nM
[27]
  Kd: 16.3 nM
[28]
  Kd: 9.7 nM
[4]
  Kd: 0.6 nM
[29]
  Kd: 16.7 nM
[30]
  Kd: 1 nM
[31]
  Kd: 0.2 nM
[5]
  Kd: 0.4 nM
[6]
  Kd: 0.3 nM
[39]
  Kd: 0.04 nM
[7]
  Kd: 22.4 nM
[32]
  Kd: < 0.01 nM
[8]
  Kd: 0.1 nM
[9]
  Kd: 0.4 nM
[33]
  Kd: 15.1 nM
[10]
  Kd: 0.04 nM

From patent US20190112340A1
